Test results reported in US20140328939A1, “METHOD FOR PREPARING BIOCOMPATIBLE SMALL INTESTINAL MUCOSA HYDROGEL CAPABLE OF CONTROLLING IN-VIVO DEGRADATION PERIOD” (AJOU UNIVERSITY INDUSTRY-ACADEMIC COOPERATION FOUNDATION, priority 2011, published 2014).

Assay: In-vivo drug release test (FITC-labeled albumin)
Details: 0.5 mL subcutaneous, SD rats; FITC-BSA 1 mg/mL
Procedure: The prepared small intestinal submucosa powder was dissolved in phosphate buffered saline to 10, 15 and 20 wt %, respectively, to prepare homogeneous solutions. Then, FITC-labeled albumin (FITC-BSA) was added to a concentration of 1 mg/mL. 0.5 mL of the albumin-containing small intestine submucosa solutions were subcutaneously injected to nine SD rats (male, 8 weeks old, 350-380 g) using a syringe (21 G, 1-cc needle). For comparison, 0.5 mL of a solution containing FITC-labeled albumin of the same concentration was subcutaneously injected to three rats. When only albumin was subcutaneously injected, the drug was not released any more after 1 day. In contrast, in case of the albumin-containing small intestinal submucosa hydrogel, the drug was continuously released for about 9 days.

albumin: FITC-labeled albumin (FITC-BSA) solution, model drug injected alone for comparison
duration of drug release (albumin concentration in blood): ≤ 1 days
